Experimental data from patent US7265263B1, “Potato transcription factors, methods of use thereof, and a method for enhancing tuber development” (Iowa State University Research Foundation, Inc., priority 2002, dated 2007).

Columns and labels:
[1] = tested on: potato ga20ox1 promoter (P1, P2, P3) and first intron; assay: Gel retardation assay with ga20ox1 promoter regions and first intron; assay type: binding
Excerpt: The first intron with partial flanking exon sequence (450 bp) of potato ga20ox1 and its promoter (981 bp, provided by Dr. Salomé Prat, CSIC Cantoblanco Campus, Univ. of Madrid, Spain) were used for gel mobility shift assays. Polymerase chain reaction (PCR) was used to amplify three regions of the promoter: -981 to 636 (P1), -660 to 307 (P2), and -331 to 0 (P3). About a 25-bp overlap was maintained between P1 and P2 or P2 and P3 in the chance that the protein-binding site would span the overlapped region. The first intron of this gene was amplified from potato genomic DNA by using PCR and the oligos 5′-[…]-3′ (SEQ ID NO:21) and 5′-[…]-3′ (SEQ ID NO:22) as primers. These primers were designed based on the site of the first intron of the tobacco GA20 oxidase gene Ntc12. The four fragments were purified on a 1.4% agarose gel and labeled with α^32P-dATP using Klenow fragment. […]
In the competition assays, unlabeled double-stranded DNA fragments (10×, 25×, 50×, 100×) were incubated with the recombinant protein before the addition of the radioactive probe. The dissociation rates were determined by adding 500-fold more cold DNA fragments to the DNA-binding reactions that were being incubated on ice, and loaded onto the running gel every 10 minutes. […]

CaMV 35S promoter = assay: Transcription assay, GUS reporter driven by CaMV 35S promoter in tobacco protoplasts; assay type: cell-based, cauliflower mosaic virus
Method: FIGS. 24A-C show schematics of constructs (FIG. 24A) and the repression effect of StBEL-05 and POTH1 on the ga20ox1 promoter (FIG. 24B) and on the 35S CaMV promoter (FIG. 24C). The construct with the LUC gene under the control of the cauliflower mosaic virus (CaMV) 35S promoter was used as an internal control. Each transfection was performed three times. Relative GUS-LUC activity was calculated with reporter alone set as 100%. Data are means±SE.
For each transfection analysis, 700 μL of tobacco protoplasts (prepared as described above) were mixed with 30 μL 2 M KCl and plasmid DNA in an electroporation cuvette with 0.4-cm electrode gap. […]
(§1) Luciferase assays were performed by injecting 100-μL luciferase substrate (Promega, Madison, Wis.) into 20 μL of extract and measuring the emitted photons for 15 seconds in a TD-20 luminometer (Turner Designs, Sunnyvale, Calif.). […] A fluorescence multiwell plate reader, Fluoroskan II (MTX labs, Vienna, Va.), was used to measure GUS activity at 365 nm (excitation) and 455 nm (emission). Each sample was measured three times for both LUC and GUS activity. Relative GUS-LUC activity was calculated by dividing the ratio of GUS activity to LUC activity from different effectors with the ratio from reporter plasmid alone. Relative activities calculated from three transfection replications were presented as a mean±SE.

ga20ox1 promoter = assay: Transcription assay, GUS reporter driven by ga20ox1 promoter in tobacco protoplasts; assay type: cell-based, potato
Excerpt: The cauliflower mosaic virus (CaMV) 35S promoter in pBI221 (Clontech, Palo Alto, Calif.) was replaced by an enhancer fragment (-832 to -50) of the 35S promoter plus 980 bp of the ga20ox1 promoter to generate the pGAOP::β-glucuronidase (GUS) reporter construct. With this construct, the reporter GUS transcription level is augmented but its transcription may still be affected by the ga20ox1 promoter. A CaMV 35S promoter-driven luciferase (LUC) construct 35S-LUC (obtained from Dr. Takahashi, Dept. of Biological Sciences, Graduate School of Science, Univ. of Tokyo, Japan) was used as an internal control. Effector constructs were also generated by using pBI221 vector as a backbone, with the GUS gene replaced by the full-length cDNAs of either StBEL-05 or POTH1, downstream of the CaMV 35S promoter. Truncated cDNAs that encode the N-terminal protein-binding domains of StBEL-05 or POTH1 were used to generate the dominant negative constructs, StBEL5ΔC295 and POTH1ΔC122, respectively. The reporter construct with the mutated promoter was generated by site-directed PCR mutagenesis with oligos 5′-CTATTTGACTTC*ACACGGTTATTT-3′ (SEQ ID NO:23) and 5′-AAATAACCGTGTG*AAGTCAAATAG-3′ (SEQ ID NO:24).
Fully expanded leaves from three- to four-week-old tobacco plants were excised and placed in K3 basal media (Kao et al., “Nutritional Requirements for Growth of Vicia hajastana Cells and Protoplasts at a Very Low Density in Liquid Media,” Planta 126:105-110 (1975), which is hereby incorporated by reference in its entirety) supplemented with 0.4 M sucrose, 0.25% (w-v) cellulases (Karlan Research Products, Santa Rosa, CA), and 0.05% (w-v) macerases (Calbiochem, La Jolla, Calif.) and incubated for overnight at 28° C. After incubation, the liberated protoplasts were filtered through sterile cheesecloth into a Babcock bottle, and centrifuged for 10 minutes at 1000 rpm. Protoplasts were collected from the bottleneck area and washed once in K3 media with 0.4 M sucrose and resuspended in K3 media containing 0.4 M glucose to a final concentration of 4×10^6 protoplasts per milliliter. […]
as §1

B1: StBEL-05 protein from pGEM11Z (in vitro transcription/translation) (other)
chain: MYYQGTSDNTNIQADHQQRHNHGNSNNNNIQTLYLMNPNNYMQGYTTSDTQQQQQLLFLNSSPAASNALCHANIQHAPLQQQHFVGVPLPAVSLHDQINHHGLLQRMWNNQDQSQQVIVPSSTGVSATSCGGITTDLASQLAFQRPIPTPQHRQQQQQQGGLSLSLSPQLQQQISFNNNISSSSPRTNNVTIRGTLDGSSSNMVLGSKYLKAAQELLDEVVNIVGKSIKGDDQKKDNSMNKESMPLASDVNTNSSGGGESSSRQKNEVAVELTTAQRQELQMKKAKLLAMLEEVEQRYRQYHHQMQIIVLSFEQVAGIGSAKSYTQLALHAISKQFRCLKDAIAEQVKATSKSLGEEEGLGGKIEGSRLKFVDHHLRQQRALQQIGMMQPNAWRPQRGLPERAVSVLRAWLFEHFLHPYPKDSDKIMLAKQTGLTRSQVSNWFINARVRLWKPMVEEMYLEEVKNQEQNSTNTSGDNKNKETNISAPNEEKHPIITSSLLQDGITTTQAEISTSTISTSPTAGASLHHAHNFSFLGSFNMDNTTTTVDHIENNAKKQRNDMHKFSPSSILSSVDMEAKARESSNKGFTNPLMAAYAMGDFGRFDPHDQQMTANFHGNNGVSLTLGLPPSENLAMPVSQQNYLSNDLGSRSEMGSHYNRMGYENIDFQSGNKRFPTQLLPDFVTGNLGT
notes: 35S-methionine labelled prey; also called p11Z-5
binding to ga20ox1 regulatory regions (mobility shift) [1]: retarded the mobility of all three promoter sequences and the first intron | effect on the activity of the CaMV 35S promoter (CaMV 35S promoter): Neither StBEL-05 nor POTH1 showed any effect | relative GUS-LUC activity of the pGAOP::GUS reporter construct (ga20ox1 promoter; co-transfected effector, reporter alone = 100%): decreased by more than half | repression of promoter activity, reporter with point mutation in the binding site (ga20ox1 promoter; mutated ga20ox1 promoter): no detectable repression
